Measurements taken from PMC11566999.

Target: T1, YTH-YPet (UniProt Q9Y5A9 380-579)
T1 sequence: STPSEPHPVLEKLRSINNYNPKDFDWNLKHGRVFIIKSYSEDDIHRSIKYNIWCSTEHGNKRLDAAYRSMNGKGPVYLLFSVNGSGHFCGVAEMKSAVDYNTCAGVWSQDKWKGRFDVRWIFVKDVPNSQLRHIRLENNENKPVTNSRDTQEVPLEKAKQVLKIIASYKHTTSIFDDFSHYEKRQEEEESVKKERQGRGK
Test: EMSA

CCGGACUGUACAUGAGGAUCACCCAUGU (structured_RNA) [aRNA]
binding result: no binding
